This assay deals with PD-1 receptor on the surface of T cells (human) (UniProt Q15116). The experiment in a line: cell-based or functional assay.

We go through one substance from patent publication US20260256941A1.

UniProt Q15116, sequence (Q15116 25-288): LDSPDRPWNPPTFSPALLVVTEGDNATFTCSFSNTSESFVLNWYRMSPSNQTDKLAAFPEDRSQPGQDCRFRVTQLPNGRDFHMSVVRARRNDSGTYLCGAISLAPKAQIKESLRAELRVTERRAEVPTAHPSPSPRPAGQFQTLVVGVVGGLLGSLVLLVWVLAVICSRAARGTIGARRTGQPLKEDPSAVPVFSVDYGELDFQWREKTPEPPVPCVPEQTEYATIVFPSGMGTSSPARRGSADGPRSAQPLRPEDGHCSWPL

“PD-L1 traditional exosome (PD-L1 displayed by traditional engineering methods) (ligand)” showed a percentage of activated (CD8+CD25+) T cells, flow cytometry; PD-L1 traditional exosome; unmodified exosome 34.1% of 22.5%.
